Data as given in doi:10.1101/2020.12.10.419556.

Legend:
Assay in all cases: loss of red fluorescence after photoconversion
[1] = target: PhoCl1.5f-MVL empty barrel fragment (residues 1-231)
[2] = target: PhoCl2f empty barrel fragment (residues 1-231)
[3] = target: PhoCl1 empty barrel fragment (residues 1-231), from pBAD/HisB constructs

Substance: PhoCl C-terminal peptide fragment (residues 232-242), from pBAD/HisB PhoCl variants
- red fluorescence remaining after dissociation [1]: 60%
- dissociation t1/2 [2]: 76 s
- dissociation t1/2 [3]: 570 s
